Reference: publication PMC7335169

Molecular target: SAM complex (Sorting and Assembly Machinery complex) from Myceliophthora thermophila: Sam50, Sam35 and Sam37 (Myceliophthora thermophila)
Test: cryo-EM structure; SAM complex in detergent GDN (0.02%), 20 mM HEPES pH 8.0, 150 mM NaCl; monomer and three dimer conformations, 3.0-3.9 Å; the authors call the dimers non-physiological

- stoichiometry N: 2
Substance: SAM complex (Sorting and Assembly Machinery complex) from Myceliophthora thermophila: Sam50, Sam35 and Sam37
